Values of other authors as cited in US20160282364A1, “ASSAY FOR INSULIN-DEGRADING ENZYME (IDE) INHIBITORS” (PRESIDENT AND FELLOWS OF HARVARD COLLEGE, priority 2013, published 2016).

Test system: IDE

B1: insulin-like peptide 3 (protein, UniProt P51460 21-55; P51460 106-131, looked up)
Insulin-like 3 B chain: LGPAPTPEMREKLCGHHFVRALVRVCGGPRWSTEA
Insulin-like 3 A chain: AAATNPARYCCLSGCTQQDLLTLCPY
modifications: Insulin-like 3
notes: IDE substrate in vitro
In the case of B1, the Km (IDE substrate) is given as 55 nM, the kcat (IDE substrate) is given as 0.15 min⁻¹ and the Degradation (degradation kinetics compared to insulin) is given as “Fast”.
